The text below walks through data of patent US11584938B2, “Plant EPSPS mutant containing L195P and S247G mutations and encoding gene and use thereof” (GEVOTO LLC, priority 2017, dated 2023).

For this test, the system named is double knockout E. coli (EPSPS defective E. coli, EDCE). Nature of the test: growth of EPSPS defective E. coli transformed by the EPSPS gene in M9 culture media containing different glyphosate concentrations. Type of test: cell-based, E. coli DH5α. From the text:
A method for detecting the glyphosate resistance of the soybean EPSPS mutant G1 provided in Example 1 and the soybean EPSPS mutant G3 provided in Example 2 is as follows:
according to the sequence of the nucleic acid molecule provided in the example, synthesizing the encoding gene that encodes the soybean EPSPS mutant G1 or G3 using a chemical synthesis method, introducing enzyme sites (Pac1 and Sbf1) at two ends thereof, connecting to an expression vector (for example, a pADV5 vector, the structure of which is as shown in FIG. 15) that has undergone the same restriction enzyme digestion treatment under the action of ligase after restriction enzyme digestion, then transforming double knockout E. coli, picking positive colonies after verification, inoculating the positive colonies to M9 culture media containing different glyphosate concentrations for growth, and observing the growth situation of the E. coli.
The wild-type soybean EPSPS (with an amino acid sequence represented by SEQ ID NO: 2 and an encoding gene sequence represented by SEQ ID NO: 1) and the soybean EPSPS mutant G2 (with an amino acid sequence represented by SEQ ID NO: 6, and a corresponding encoding gene sequence represented by SEQ ID NO: 5) merely containing the mutation P114(101)S were taken as controls.
In the above, the M9 basal culture medium can be prepared by the following method:
5×M9 salt solution: 6.78 g of Na2HPO4, 3.0 g of KH2PO4, 0.5 g of NaCl, and 1.0 g of NH4Cl were weighed, added with ddH2O to 200 ml, and subjected to high-temperature and high-pressure sterilization treatment;
20% glucose: 20 g of glucose was weighed, added with 80 ml of ddH2O for dissolving, diluted to 100 ml, and subjected to filtration and sterilization treatment;
1.0 M MgSO4: 24.6 g of MgSO4-7H2O was weighed, dissolved with 80 ml of ddH2O, diluted to 100 ml, and subjected to sterilization treatment;
1.0 M CaCl2: 11.1 g of CaCl2 was weighed, dissolved with 80 ml of ddH2O, diluted to 100 ml, and subjected to sterilization treatment; and
1000 ml of the M9 basal culture media were prepared by adding ddH2O to 200 ml of 5×M9 salt solution, 20 ml of 20% glucose, 2 ml of 1.0 M MgSO4 and 0.1 ml of 1.0 M CaCl2 to make up to 1000 ml.
In the above, the E. coli used was double knockout E. coli, namely, EPSPS defective E. coli (E. coli DH5α with EPSPS gene and C-P Lyase gene being knocked out, named as EDCE, wherein for a preparation method thereof, reference can be made to a Chinese invention patent with the filing number CN2016103256926).
The glyphosate resistance of the soybean EPSPS mutant G4 provided in Example 3 and the soybean EPSPS mutant G5 provided in Example 4 was verified with reference to the detection method in Experiment Example 1.
The wild-type wheat EPSPS (with an amino acid sequence represented by SEQ ID NO: 14, and a corresponding encoding gene sequence represented by SEQ ID NO: 13) and the wheat EPSPS mutant T2 (with an amino acid sequence represented by SEQ ID NO: 18, and a corresponding encoding gene sequence represented by SEQ ID NO: 17) merely containing the mutation P118(101)S were taken as controls to verify the glyphosate resistance of the wheat EPSPS mutants T1 and T3 provided in Example 5 and Example 6, and reference can be made to Experiment Example 1 for the method.
A method for verifying the glyphosate resistance of the wheat EPSPS mutants T4, T5, and T6 provided in Examples 7-9 is the same as that in Experiment Example 3.
The wild-type rice EPSPS R0 (with an amino acid sequence represented by SEQ ID NO: 28, and a corresponding encoding gene sequence represented by SEQ ID NO: 27) and the rice EPSPS mutant R2 (with an amino acid sequence represented by SEQ ID NO: 32, and a corresponding encoding gene sequence represented by SEQ ID NO: 31) merely containing the mutation P116(101)S were taken as controls to verify the glyphosate resistance of the rice EPSPS mutants R1 and R3 provided in Examples 10 and 11, and reference can be made to Experiment Example 1 for the method. […]

[1] abbreviates: culture media containing 0 mM glyphosate.
[2] abbreviates: culture media containing 1 mM glyphosate.
Setting [3] is: culture media containing 5 mM glyphosate.
[4] abbreviates: culture media containing 20 mM glyphosate.
Where [5] appears, read: culture media containing 10 mM glyphosate.

B1: G0: wild-type soybean EPSPS, amino acid sequence SEQ ID NO: 2; control (protein)
chain: MAAAEKPSTAPEIVLEPIKDISGTITLPGSKSLSNRILLLAALSEGTTVVDNLLYSEDIHYMLGALRTLGLRVEDDQTTKQAIVEGCGGLFPTIKESKDEINLFLGNAGTAMRPLTAAVVAAGGNASYVLDGVPRMRERPIGDLVAGLKQLGADVDCFLGTNCPPVRVNGKGGLPGGKVKLSGSVSSQYLTALLMAAPLALGDVEIEIVDKLISVPYVEMTLKLMERFGVSVEHSGDWDKFLVHGGQKYKSPGNAFVEGDASSASYFLAGAAVTGGTITVNGCGTSSLQGDVKFAEVLEKMGAKVTWSENSVTVTGPPQDSSGQKVLQGIDVNMNKMPDVAMTLAVVALFANGQTTIRDVASWRVKETERMIAICTELRKLGATVEEGPDYCVITPPEKLNVTAIDTYDDHRMAMAFSLAACGDVPVTIKDPGCTRKTFPDYFEVLERFTRH
modifications: Glycine max
notes: control
As to B1, the “growth of the E. coli transformed by the EPSPS” value (from here on “growth … by the EPSPS”) is “could grow” under setting [1], “substantially could not grow” under setting [2] and “substantially could not grow” under setting [3].

B2: G3: soybean EPSPS mutant, SEQ ID NO: 8, mutations L212(195)P and P114(101)S (protein)
chain: MAAAEKPSTAPEIVLEPIKDISGTITLPGSKSLSNRILLLAALSEGTTVVDNLLYSEDIHYMLGALRTLGLRVEDDQTTKQAIVEGCGGLFPTIKESKDEINLFLGNAGTAMRSLTAAVVAAGGNASYVLDGVPRMRERPIGDLVAGLKQLGADVDCFLGTNCPPVRVNGKGGLPGGKVKLSGSVSSQYLTALLMAAPLALGDVEIEIVDKPISVPYVEMTLKLMERFGVSVEHSGDWDKFLVHGGQKYKSPGNAFVEGDASSASYFLAGAAVTGGTITVNGCGTSSLQGDVKFAEVLEKMGAKVTWSENSVTVTGPPQDSSGQKVLQGIDVNMNKMPDVAMTLAVVALFANGQTTIRDVASWRVKETERMIAICTELRKLGATVEEGPDYCVITPPEKLNVTAIDTYDDHRMAMAFSLAACGDVPVTIKDPGCTRKTFPDYFEVLERFTRH
Consider B2, for which, under setting [1], the “growth … by the EPSPS” value is “could grow”. Under setting [4], the “growth … by the EPSPS” value is given as “could grow” and the “growth of the transformed E. coli compared with E. coli transformed by the control EPSPS named in the value” is “superior to that of the E. coli transformed by the soybean EPSPS mutant G2”.

B3: G1: soybean EPSPS mutant, SEQ ID NO: 4, mutation L212(195)P (protein)
chain: MAAAEKPSTAPEIVLEPIKDISGTITLPGSKSLSNRILLLAALSEGTTVVDNLLYSEDIHYMLGALRTLGLRVEDDQTTKQAIVEGCGGLFPTIKESKDEINLFLGNAGTAMRPLTAAVVAAGGNASYVLDGVPRMRERPIGDLVAGLKQLGADVDCFLGTNCPPVRVNGKGGLPGGKVKLSGSVSSQYLTALLMAAPLALGDVEIEIVDKPISVPYVEMTLKLMERFGVSVEHSGDWDKFLVHGGQKYKSPGNAFVEGDASSASYFLAGAAVTGGTITVNGCGTSSLQGDVKFAEVLEKMGAKVTWSENSVTVTGPPQDSSGQKVLQGIDVNMNKMPDVAMTLAVVALFANGQTTIRDVASWRVKETERMIAICTELRKLGATVEEGPDYCVITPPEKLNVTAIDTYDDHRMAMAFSLAACGDVPVTIKDPGCTRKTFPDYFEVLERFTRH
Turning to B3, under setting [1], the “growth … by the EPSPS” value was “could grow”. Besides, the “growth of the transformed E. coli compared with E. coli transformed by the control EPSPS named in the value” under setting [2] is “obviously superior to that of the E. coli transformed by G0”.

B4: G4: soybean EPSPS mutant, SEQ ID NO: 10, mutation S265(247)G (protein)
chain: MAAAEKPSTAPEIVLEPIKDISGTITLPGSKSLSNRILLLAALSEGTTVVDNLLYSEDIHYMLGALRTLGLRVEDDQTTKQAIVEGCGGLFPTIKESKDEINLFLGNAGTAMRPLTAAVVAAGGNASYVLDGVPRMRERPIGDLVAGLKQLGADVDCFLGTNCPPVRVNGKGGLPGGKVKLSGSVSSQYLTALLMAAPLALGDVEIEIVDKLISVPYVEMTLKLMERFGVSVEHSGDWDKFLVHGGQKYKSPGNAFVEGDASSAGYFLAGAAVTGGTITVNGCGTSSLQGDVKFAEVLEKMGAKVTWSENSVTVTGPPQDSSGQKVLQGIDVNMNKMPDVAMTLAVVALFANGQTTIRDVASWRVKETERMIAICTELRKLGATVEEGPDYCVITPPEKLNVTAIDTYDDHRMAMAFSLAACGDVPVTIKDPGCTRKTFPDYFEVLERFTRH
For B4, the “growth … by the EPSPS” value under setting [1] is recorded as “could grow”. Moreover, the “growth of the transformed E. coli compared with E. coli transformed by the control EPSPS named in the value” under setting [3] is given as “superior to that of the E. coli transformed by G0”.

B5: G5: soybean EPSPS mutant, SEQ ID NO: 12, mutations S265(247)G and P114(101)S (protein)
chain: MAAAEKPSTAPEIVLEPIKDISGTITLPGSKSLSNRILLLAALSEGTTVVDNLLYSEDIHYMLGALRTLGLRVEDDQTTKQAIVEGCGGLFPTIKESKDEINLFLGNAGTAMRSLTAAVVAAGGNASYVLDGVPRMRERPIGDLVAGLKQLGADVDCFLGTNCPPVRVNGKGGLPGGKVKLSGSVSSQYLTALLMAAPLALGDVEIEIVDKLISVPYVEMTLKLMERFGVSVEHSGDWDKFLVHGGQKYKSPGNAFVEGDASSAGYFLAGAAVTGGTITVNGCGTSSLQGDVKFAEVLEKMGAKVTWSENSVTVTGPPQDSSGQKVLQGIDVNMNKMPDVAMTLAVVALFANGQTTIRDVASWRVKETERMIAICTELRKLGATVEEGPDYCVITPPEKLNVTAIDTYDDHRMAMAFSLAACGDVPVTIKDPGCTRKTFPDYFEVLERFTRH
As for B5, under setting [1], the “growth … by the EPSPS” value is on record as “could grow”. Under setting [5], the “growth … by the EPSPS” value is recorded as “could grow” and the “growth of the transformed E. coli compared with E. coli transformed by the control EPSPS named in the value” is “obviously superior to that of the E. coli transformed by G2”.

B6: G2: soybean EPSPS mutant, SEQ ID NO: 6, merely containing the mutation P114(101)S; control (protein)
chain: MAAAEKPSTAPEIVLEPIKDISGTITLPGSKSLSNRILLLAALSEGTTVVDNLLYSEDIHYMLGALRTLGLRVEDDQTTKQAIVEGCGGLFPTIKESKDEINLFLGNAGTAMRSLTAAVVAAGGNASYVLDGVPRMRERPIGDLVAGLKQLGADVDCFLGTNCPPVRVNGKGGLPGGKVKLSGSVSSQYLTALLMAAPLALGDVEIEIVDKLISVPYVEMTLKLMERFGVSVEHSGDWDKFLVHGGQKYKSPGNAFVEGDASSASYFLAGAAVTGGTITVNGCGTSSLQGDVKFAEVLEKMGAKVTWSENSVTVTGPPQDSSGQKVLQGIDVNMNKMPDVAMTLAVVALFANGQTTIRDVASWRVKETERMIAICTELRKLGATVEEGPDYCVITPPEKLNVTAIDTYDDHRMAMAFSLAACGDVPVTIKDPGCTRKTFPDYFEVLERFTRH
Take B6: the “growth … by the EPSPS” value is listed as “could grow” under setting [1], “could grow” under setting [5] and “could grow” under setting [4].
